Reference: paper PMC3792862, “Structure of UreG/UreF/UreH Complex Reveals How Urease Accessory Proteins Facilitate Maturation of Helicobacter pylori Urease” (PLoS Biology, 2013)

T1: UreH (Helicobacter pylori, UniProt Q09067 1-265)
T1 construct: UreH, urease accessory protein of Helicobacter pylori; The UreH chain of m6 to m9; also called UreH (ortholog of UreD)
T1 sequence: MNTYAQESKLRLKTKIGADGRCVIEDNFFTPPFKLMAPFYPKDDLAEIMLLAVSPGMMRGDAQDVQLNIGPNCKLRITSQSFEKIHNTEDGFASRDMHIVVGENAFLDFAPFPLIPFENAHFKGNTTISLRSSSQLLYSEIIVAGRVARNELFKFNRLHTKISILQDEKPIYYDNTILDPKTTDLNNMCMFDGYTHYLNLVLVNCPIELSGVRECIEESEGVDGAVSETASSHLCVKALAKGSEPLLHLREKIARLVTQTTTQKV

T2: HisGST-UreF/UreH complex (Helicobacter pylori, UniProt Q09065 1-254; Q09067 1-265)
T2 construct: UreF, urease accessory protein of Helicobacter pylori; UreH, urease accessory protein of Helicobacter pylori; also called wild-type HisGST-UreF (with UreH)
T2 sequence 1: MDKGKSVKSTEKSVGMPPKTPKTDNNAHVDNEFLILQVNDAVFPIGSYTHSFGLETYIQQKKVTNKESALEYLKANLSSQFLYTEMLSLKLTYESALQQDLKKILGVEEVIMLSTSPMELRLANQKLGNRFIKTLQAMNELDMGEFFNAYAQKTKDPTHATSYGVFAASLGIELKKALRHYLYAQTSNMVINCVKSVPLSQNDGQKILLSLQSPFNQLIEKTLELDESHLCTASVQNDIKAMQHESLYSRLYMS
T2 sequence 2: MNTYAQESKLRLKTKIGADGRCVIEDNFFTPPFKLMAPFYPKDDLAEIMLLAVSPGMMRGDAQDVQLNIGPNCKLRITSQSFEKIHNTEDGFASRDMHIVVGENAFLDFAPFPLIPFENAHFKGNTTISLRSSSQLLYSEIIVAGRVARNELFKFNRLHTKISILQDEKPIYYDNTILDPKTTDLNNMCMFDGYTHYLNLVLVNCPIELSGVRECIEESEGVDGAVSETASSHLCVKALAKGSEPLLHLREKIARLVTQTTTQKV

B1: UreF/UreH complex (complex)
chain 1: MDKGKSVKSTEKSVGMPPKTPKTDNNAHVDNEFLILQVNDAVFPIGSYTHSFGLETYIQQKKVTNKESALEYLKANLSSQFLYTEMLSLKLTYESALQQDLKKILGVEEVIMLSTSPMELRLANQKLGNRFIKTLQAMNELDMGEFFNAYAQKTKDPTHATSYGVFAASLGIELKKALRHYLYAQTSNMVINCVKSVPLSQNDGQKILLSLQSPFNQLIEKTLELDESHLCTASVQNDIKAMQHESLYSRLYMS
chain 2: MNTYAQESKLRLKTKIGADGRCVIEDNFFTPPFKLMAPFYPKDDLAEIMLLAVSPGMMRGDAQDVQLNIGPNCKLRITSQSFEKIHNTEDGFASRDMHIVVGENAFLDFAPFPLIPFENAHFKGNTTISLRSSSQLLYSEIIVAGRVARNELFKFNRLHTKISILQDEKPIYYDNTILDPKTTDLNNMCMFDGYTHYLNLVLVNCPIELSGVRECIEESEGVDGAVSETASSHLCVKALAKGSEPLLHLREKIARLVTQTTTQKV
notes: UreF, urease accessory protein of Helicobacter pylori; UreH, urease accessory protein of Helicobacter pylori (ortholog of UreD); also called (UreF/UreH)2; wild-type UreF/UreH complex; copies: 2 + 2
B2: UreF (natural protein)
chain: MDKGKSVKSTEKSVGMPPKTPKTDNNAHVDNEFLILQVNDAVFPIGSYTHSFGLETYIQQKKVTNKESALEYLKANLSSQFLYTEMLSLKLTYESALQQDLKKILGVEEVIMLSTSPMELRLANQKLGNRFIKTLQAMNELDMGEFFNAYAQKTKDPTHATSYGVFAASLGIELKKALRHYLYAQTSNMVINCVKSVPLSQNDGQKILLSLQSPFNQLIEKTLELDESHLCTASVQNDIKAMQHESLYSRLYMS
notes: UreF, urease accessory protein of Helicobacter pylori; The UreF chain of m6, for the rows of two chains that touch; also called UreF protomer; UreF chain A
B3: UreG (natural protein)
chain: MVKIGVCGPVGSGKTALIEALTRHMSKDYDMAVITNDIYTKEDAEFMCKNSVMPRERIIGVETGGCPHTAIREDASMNLEAVEEMHGRFPNLELLLIESGGDNLSATFNPELADFTIFVIDVAEGDKIPRKGGPGITRSDLLVINKIDLAPYVGADLKVMERDSKKMRGEKPFIFTNIRAKEGLDDVIAWIKRNALLED
notes: UreG, urease accessory protein (SIMIBI class GTPase) of Helicobacter pylori; Monomer in solution unless nickel and GTP (or free zinc) are present; two copies in the crystal of the UreG/UreF/UreH complex; also called apo-UreG; wild-type UreG; source: E. coli, purified (HisTrap, tag cleaved with SENP1C, second HisTrap, Superdex 75; dialysed with 5 mM EDTA)

Legend:
[1] = target: the molecule itself; experiment: SEC-MALS; SEC/SLS; 40 µM UreG/UreF/UreH complex pre-incubated with 0.5 mM nickel and 1 mM GTP (2 mM magnesium sulfate); Superdex 200, phosphate-buffered saline; peaks analysed by SDS-PAGE
UreH = target: T1, UreH; experiment: crystal structure; UreG/UreF/UreH complex with 5 mM GDP, 10 mM magnesium sulfate, 5 mM aluminum fluoride; 1.5 M ammonium sulfate, 100 mM sodium acetate pH 5.0, 16°C; GDP-bound state, 2.35 Å; conditions: both partners purified
[2] = target: the molecule itself; experiment: as above
UreF = target: B2; experiment: as above; conditions: both partners purified
UreF/UreH complex = target: B1; experiment: as above; conditions: both partners purified
HisGST-UreF/UreH complex = target: T2, HisGST-UreF/UreH complex; experiment: pull-down; purified GST-UreF/UreH and excess UreG on GST SpinTrap, 30 min at 4°C; immobilised complex incubated with 1 mM GTP and 2 mM magnesium sulfate, washed with buffer C, eluted with glutathione; SDS-PAGE of wash and eluate; conditions: both partners purified

Row | Binder | stoichiometry N [1] | binding result (UreH) | binding result [2] | binding result (UreF) | binding result (UreF/UreH complex) | binding result (HisGST-UreF/UreH complex)
1 | B1 | 2 |  |  |  |  | 
2 | B2 |  | binds | binds |  |  | 
3 | B3 | 2 |  |  | binds | binds | binds
